Results as given in patent US20130005646A1 (Novo Nordisk, published 2013).
Starred links: 1 amine or outer side, 2 acyl side, 3 side chain; linkers in the order of their positions; H or OH if unused. Positions of bridges follow the written chain, without caps; N, C: chain ends. *: point of attachment. C20 diacid = O=C(O)CCCCCCCCCCCCCCCCCCC(=O)*; C18 diacid = O=C(O)CCCCCCCCCCCCCCCCC(=O)*; γGlu = O=C(O)[C@H](CCC(=O)[*:2])N[*:1]

T1: human calcitonin (a) receptor (human, UniProt P30988 25-474)
T1 sequence (looked up): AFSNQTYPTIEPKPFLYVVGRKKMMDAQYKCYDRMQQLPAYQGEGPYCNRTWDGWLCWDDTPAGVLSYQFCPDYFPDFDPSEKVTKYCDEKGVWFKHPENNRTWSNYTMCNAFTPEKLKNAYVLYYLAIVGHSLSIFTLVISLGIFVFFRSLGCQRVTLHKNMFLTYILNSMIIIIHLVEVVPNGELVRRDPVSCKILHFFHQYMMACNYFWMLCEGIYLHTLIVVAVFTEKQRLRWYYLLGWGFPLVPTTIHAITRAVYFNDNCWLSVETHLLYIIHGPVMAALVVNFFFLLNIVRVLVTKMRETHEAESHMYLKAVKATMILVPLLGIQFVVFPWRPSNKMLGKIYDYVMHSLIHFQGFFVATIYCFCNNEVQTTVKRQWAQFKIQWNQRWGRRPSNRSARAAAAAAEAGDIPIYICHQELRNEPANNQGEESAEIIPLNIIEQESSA

T2: human amylin 3(a) receptor (human calcitonin receptor + RAMP-3) (human, UniProt P30988 25-474; O60896 24-148)
T2 sequence (looked up) 1: T1 sequence (looked up)
T2 sequence (looked up) 2: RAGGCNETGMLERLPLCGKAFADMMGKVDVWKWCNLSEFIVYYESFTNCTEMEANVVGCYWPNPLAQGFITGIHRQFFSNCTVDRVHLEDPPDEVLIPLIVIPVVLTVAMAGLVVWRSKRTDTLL

B1: N-alpha-{(S)-4-Carboxy-4-[(S)-4-Carboxy-4-(17-carboxyheptadecanoylamino)butyrylamino]butyryl}-[des1,Glu14,His17]-pramlintide (peptide)
peptide: {C18 diacid-γGlu-γGlu}-CNTATCATQRLAEFLHHSSNNFGPILPPTNVGSNTY-NH2
modifications: disulfide 1-6
SMILES: CC[C@H](C)[C@H](NC(=O)[C@@H]1CCCN1C(=O)CNC(=O)[C@H](Cc1ccccc1)NC(=O)[C@H](CC(N)=O)NC(=O)[C@H](CC(N)=O)NC(=O)[C@H](CO)NC(=O)[C@H](CO)NC(=O)[C@H](Cc1c[nH]cn1)NC(=O)[C@H](Cc1c[nH]cn1)NC(=O)[C@H](CC(C)C)NC(=O)[C@H](Cc1ccccc1)NC(=O)[C@H](CCC(=O)O)NC(=O)[C@H](C)NC(=O)[C@H](CC(C)C)NC(=O)[C@H](CCCNC(=N)N)NC(=O)[C@H](CCC(N)=O)NC(=O)[C@@H](NC(=O)[C@H](C)NC(=O)[C@@H]1CSSC[C@H](NC(=O)CC[C@H](NC(=O)CC[C@H](NC(=O)CCCCCCCCCCCCCCCCC(=O)O)C(=O)O)C(=O)O)C(=O)N[C@@H](CC(N)=O)C(=O)N[C@@H]([C@@H](C)O)C(=O)N[C@@H](C)C(=O)N[C@@H]([C@@H](C)O)C(=O)N1)[C@@H](C)O)C(=O)N[C@@H](CC(C)C)C(=O)N1CCC[C@H]1C(=O)N1CCC[C@H]1C(=O)N[C@H](C(=O)N[C@@H](CC(N)=O)C(=O)N[C@H](C(=O)NCC(=O)N[C@@H](CO)C(=O)N[C@@H](CC(N)=O)C(=O)N[C@H](C(=O)N[C@@H](Cc1ccc(O)cc1)C(N)=O)[C@@H](C)O)C(C)C)[C@@H](C)O
B2: N-alpha-[(S)-4-Carboxy-4-(19-carboxynonadecanoylamino)butyryl]-[Glu14,Arg17]-pramlintide (peptide)
peptide: {C20 diacid-γGlu}-KCNTATCATQRLAEFLRHSSNNFGPILPPTNVGSNTY-NH2
modifications: disulfide 2-7
SMILES: CC[C@H](C)[C@H](NC(=O)[C@@H]1CCCN1C(=O)CNC(=O)[C@H](Cc1ccccc1)NC(=O)[C@H](CC(N)=O)NC(=O)[C@H](CC(N)=O)NC(=O)[C@H](CO)NC(=O)[C@H](CO)NC(=O)[C@H](Cc1c[nH]cn1)NC(=O)[C@H](CCCNC(=N)N)NC(=O)[C@H](CC(C)C)NC(=O)[C@H](Cc1ccccc1)NC(=O)[C@H](CCC(=O)O)NC(=O)[C@H](C)NC(=O)[C@H](CC(C)C)NC(=O)[C@H](CCCNC(=N)N)NC(=O)[C@H](CCC(N)=O)NC(=O)[C@@H](NC(=O)[C@H](C)NC(=O)[C@@H]1CSSC[C@H](NC(=O)[C@H](CCCCN)NC(=O)CC[C@H](NC(=O)CCCCCCCCCCCCCCCCCCC(=O)O)C(=O)O)C(=O)N[C@@H](CC(N)=O)C(=O)N[C@@H]([C@@H](C)O)C(=O)N[C@@H](C)C(=O)N[C@@H]([C@@H](C)O)C(=O)N1)[C@@H](C)O)C(=O)N[C@@H](CC(C)C)C(=O)N1CCC[C@H]1C(=O)N1CCC[C@H]1C(=O)N[C@H](C(=O)N[C@@H](CC(N)=O)C(=O)N[C@H](C(=O)NCC(=O)N[C@@H](CO)C(=O)N[C@@H](CC(N)=O)C(=O)N[C@H](C(=O)N[C@@H](Cc1ccc(O)cc1)C(N)=O)[C@@H](C)O)C(C)C)[C@@H](C)O
B3: N-alpha-[(S)-4-Carboxy-4-(19-carboxynonadecanoylamino)butyryl]-His-His-[His1,Glu14,His17,Ser21,Glu35]-pramlintide (peptide)
peptide: {C20 diacid-γGlu}-HHHCNTATCATQRLAEFLHHSSSNFGPILPPTNVGSETY-NH2
modifications: disulfide 4-9
SMILES: CC[C@H](C)[C@H](NC(=O)[C@@H]1CCCN1C(=O)CNC(=O)[C@H](Cc1ccccc1)NC(=O)[C@H](CC(N)=O)NC(=O)[C@H](CO)NC(=O)[C@H](CO)NC(=O)[C@H](CO)NC(=O)[C@H](Cc1c[nH]cn1)NC(=O)[C@H](Cc1c[nH]cn1)NC(=O)[C@H](CC(C)C)NC(=O)[C@H](Cc1ccccc1)NC(=O)[C@H](CCC(=O)O)NC(=O)[C@H](C)NC(=O)[C@H](CC(C)C)NC(=O)[C@H](CCCNC(=N)N)NC(=O)[C@H](CCC(N)=O)NC(=O)[C@@H](NC(=O)[C@H](C)NC(=O)[C@@H]1CSSC[C@H](NC(=O)[C@H](Cc2c[nH]cn2)NC(=O)[C@H](Cc2c[nH]cn2)NC(=O)[C@H](Cc2c[nH]cn2)NC(=O)CC[C@H](NC(=O)CCCCCCCCCCCCCCCCCCC(=O)O)C(=O)O)C(=O)N[C@@H](CC(N)=O)C(=O)N[C@@H]([C@@H](C)O)C(=O)N[C@@H](C)C(=O)N[C@@H]([C@@H](C)O)C(=O)N1)[C@@H](C)O)C(=O)N[C@@H](CC(C)C)C(=O)N1CCC[C@H]1C(=O)N1CCC[C@H]1C(=O)N[C@H](C(=O)N[C@@H](CC(N)=O)C(=O)N[C@H](C(=O)NCC(=O)N[C@@H](CO)C(=O)N[C@@H](CCC(=O)O)C(=O)N[C@H](C(=O)N[C@@H](Cc1ccc(O)cc1)C(N)=O)[C@@H](C)O)C(C)C)[C@@H](C)O
B4: N-alpha-[(S)-4-Carboxy-4-(19-carboxynonadecanoylamino)butyryl]-[Glu10,Glu14,His17]-pramlintide (peptide)
peptide: {C20 diacid-γGlu}-KCNTATCATERLAEFLHHSSNNFGPILPPTNVGSNTY-NH2
modifications: disulfide 2-7
SMILES: CC[C@H](C)[C@H](NC(=O)[C@@H]1CCCN1C(=O)CNC(=O)[C@H](Cc1ccccc1)NC(=O)[C@H](CC(N)=O)NC(=O)[C@H](CC(N)=O)NC(=O)[C@H](CO)NC(=O)[C@H](CO)NC(=O)[C@H](Cc1c[nH]cn1)NC(=O)[C@H](Cc1c[nH]cn1)NC(=O)[C@H](CC(C)C)NC(=O)[C@H](Cc1ccccc1)NC(=O)[C@H](CCC(=O)O)NC(=O)[C@H](C)NC(=O)[C@H](CC(C)C)NC(=O)[C@H](CCCNC(=N)N)NC(=O)[C@H](CCC(=O)O)NC(=O)[C@@H](NC(=O)[C@H](C)NC(=O)[C@@H]1CSSC[C@H](NC(=O)[C@H](CCCCN)NC(=O)CC[C@H](NC(=O)CCCCCCCCCCCCCCCCCCC(=O)O)C(=O)O)C(=O)N[C@@H](CC(N)=O)C(=O)N[C@@H]([C@@H](C)O)C(=O)N[C@@H](C)C(=O)N[C@@H]([C@@H](C)O)C(=O)N1)[C@@H](C)O)C(=O)N[C@@H](CC(C)C)C(=O)N1CCC[C@H]1C(=O)N1CCC[C@H]1C(=O)N[C@H](C(=O)N[C@@H](CC(N)=O)C(=O)N[C@H](C(=O)NCC(=O)N[C@@H](CO)C(=O)N[C@@H](CC(N)=O)C(=O)N[C@H](C(=O)N[C@@H](Cc1ccc(O)cc1)C(N)=O)[C@@H](C)O)C(C)C)[C@@H](C)O
B5: N-alpha-[(S)-4-Carboxy-4-(17-carboxyheptadecanoylamino)butyryl]-[Glu14,Arg17]-pramlintide (peptide)
peptide: {C18 diacid-γGlu}-KCNTATCATQRLAEFLRHSSNNFGPILPPTNVGSNTY-NH2
modifications: disulfide 2-7
SMILES: CC[C@H](C)[C@H](NC(=O)[C@@H]1CCCN1C(=O)CNC(=O)[C@H](Cc1ccccc1)NC(=O)[C@H](CC(N)=O)NC(=O)[C@H](CC(N)=O)NC(=O)[C@H](CO)NC(=O)[C@H](CO)NC(=O)[C@H](Cc1c[nH]cn1)NC(=O)[C@H](CCCNC(=N)N)NC(=O)[C@H](CC(C)C)NC(=O)[C@H](Cc1ccccc1)NC(=O)[C@H](CCC(=O)O)NC(=O)[C@H](C)NC(=O)[C@H](CC(C)C)NC(=O)[C@H](CCCNC(=N)N)NC(=O)[C@H](CCC(N)=O)NC(=O)[C@@H](NC(=O)[C@H](C)NC(=O)[C@@H]1CSSC[C@H](NC(=O)[C@H](CCCCN)NC(=O)CC[C@H](NC(=O)CCCCCCCCCCCCCCCCC(=O)O)C(=O)O)C(=O)N[C@@H](CC(N)=O)C(=O)N[C@@H]([C@@H](C)O)C(=O)N[C@@H](C)C(=O)N[C@@H]([C@@H](C)O)C(=O)N1)[C@@H](C)O)C(=O)N[C@@H](CC(C)C)C(=O)N1CCC[C@H]1C(=O)N1CCC[C@H]1C(=O)N[C@H](C(=O)N[C@@H](CC(N)=O)C(=O)N[C@H](C(=O)NCC(=O)N[C@@H](CO)C(=O)N[C@@H](CC(N)=O)C(=O)N[C@H](C(=O)N[C@@H](Cc1ccc(O)cc1)C(N)=O)[C@@H](C)O)C(C)C)[C@@H](C)O
B6: N-alpha-[(S)-4-Carboxy-4-(17-carboxyheptadecanoylamino)butyryl]-Glu-[Glu14,His17,His35]-pramlintide (peptide)
peptide: {C18 diacid-γGlu}-EKCNTATCATQRLAEFLHHSSNNFGPILPPTNVGSHTY-NH2
modifications: disulfide 3-8
SMILES: CC[C@H](C)[C@H](NC(=O)[C@@H]1CCCN1C(=O)CNC(=O)[C@H](Cc1ccccc1)NC(=O)[C@H](CC(N)=O)NC(=O)[C@H](CC(N)=O)NC(=O)[C@H](CO)NC(=O)[C@H](CO)NC(=O)[C@H](Cc1c[nH]cn1)NC(=O)[C@H](Cc1c[nH]cn1)NC(=O)[C@H](CC(C)C)NC(=O)[C@H](Cc1ccccc1)NC(=O)[C@H](CCC(=O)O)NC(=O)[C@H](C)NC(=O)[C@H](CC(C)C)NC(=O)[C@H](CCCNC(=N)N)NC(=O)[C@H](CCC(N)=O)NC(=O)[C@@H](NC(=O)[C@H](C)NC(=O)[C@@H]1CSSC[C@H](NC(=O)[C@H](CCCCN)NC(=O)[C@H](CCC(=O)O)NC(=O)CC[C@H](NC(=O)CCCCCCCCCCCCCCCCC(=O)O)C(=O)O)C(=O)N[C@@H](CC(N)=O)C(=O)N[C@@H]([C@@H](C)O)C(=O)N[C@@H](C)C(=O)N[C@@H]([C@@H](C)O)C(=O)N1)[C@@H](C)O)C(=O)N[C@@H](CC(C)C)C(=O)N1CCC[C@H]1C(=O)N1CCC[C@H]1C(=O)N[C@H](C(=O)N[C@@H](CC(N)=O)C(=O)N[C@H](C(=O)NCC(=O)N[C@@H](CO)C(=O)N[C@@H](Cc1c[nH]cn1)C(=O)N[C@H](C(=O)N[C@@H](Cc1ccc(O)cc1)C(N)=O)[C@@H](C)O)C(C)C)[C@@H](C)O

molecular target: T1, human calcitonin (a) receptor; test: cell-based or functional assay

Row | CTa receptor human EC50 [nM] | Binder
1 | 0.527 | B1
2 | 0.459 | B2
3 | 0.632 | B3
4 | 0.2 | B4
5 | 0.6 | B5
6 | 0.169 | B6

molecular target: T2, human amylin 3(a) receptor (human …); test: cell-based or functional assay

Row | Amylin receptor human EC50 [nM] | Binder
7 | 0.151 | B1
8 | 0.101 | B2
9 | 0.558 | B3
10 | 0.13 | B4
11 | 0.061 | B5
12 | 0.102 | B6
